Reference: patent US20170296680A1 (NATIONAL RESEARCH COUNCIL OF CANADA, published 2017)
Where “and” joins values, the source holds several entries; their conditions need not be identical. Equal values may be shown once. Blank lines part the entries; values can stand above or below the binder they belong to.

Key:
[1] = biological target: T1, recombinant human tau protein, isoform 2N4R (Tau-441) (human, UniProt P10636-8 1-441); test: SPR, sdAb stored at 4 C, 30 days after IMAC purification
T1 construct: Bought
T1 sequence (P10636 other isoform, or with tags, fused parts or gaps limits assumed): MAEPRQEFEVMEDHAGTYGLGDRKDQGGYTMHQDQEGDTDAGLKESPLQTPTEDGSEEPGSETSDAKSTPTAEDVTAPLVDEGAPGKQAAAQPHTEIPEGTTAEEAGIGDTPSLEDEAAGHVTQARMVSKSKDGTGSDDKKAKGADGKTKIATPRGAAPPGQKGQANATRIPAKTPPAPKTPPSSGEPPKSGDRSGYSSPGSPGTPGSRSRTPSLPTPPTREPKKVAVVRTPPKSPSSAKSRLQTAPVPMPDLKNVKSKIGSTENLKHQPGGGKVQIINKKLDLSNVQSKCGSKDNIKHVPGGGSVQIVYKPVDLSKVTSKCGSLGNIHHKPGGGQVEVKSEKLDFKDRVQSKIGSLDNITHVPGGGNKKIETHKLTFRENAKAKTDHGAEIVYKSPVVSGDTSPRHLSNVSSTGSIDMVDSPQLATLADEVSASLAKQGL

[2] = biological target: T1, recombinant human tau protein, isoform …; test: SPR (Biacore T200), sdAb over immobilized antigen, steady state fit
Method: (§1) Surface Plasmon Resonance (SPR): All binding assays for Tau15 and Tau81 were carried out at 25° C. on a Biacore™ T200 instrument (GE Healthcare). […] The running buffer for all SPR experiments was HBS-EP+ (10 mM HEPES, 150 mM NaCl, 3 mM EDTA, pH 7.4, 0.05% surfactant P20; GE Healthcare). The sdAb were injected at 20 μL/min for 3 min with a dissociation time of 7 min for the test run, and at 20 μL/min for 2 min with a dissociation time of 6 min for the steady state analysis. Data was analyzed using the Biacore T200 evaluations software Version 2.0.
(§2) The KD value for the interaction between Tau15 and Tau81 sdAb and immobilized tau were derived by fitting the data to a steady state model and are reported in Table 1. […] Size exclusion chromatograms (FIG. 4) confirmed that Tau15 and Tau81 were monomeric.

[3] = biological target: hyperphosphorylated tau (tau-p; University of Victoria); test: as above
Method: as §1, §2

[4] = biological target: T1, recombinant human tau protein, isoform …; test: SPR, sdAb stored at 4 C, 34 days after IMAC purification
[5] = biological target: T1, recombinant human tau protein, isoform …; test: SPR, sdAb stored at 4 C, 42 days after IMAC purification
[6] = biological target: T1, recombinant human tau protein, isoform …; test: SPR, sdAb stored at 4 C, 55 days after IMAC purification
[7] = biological target: T1, recombinant human tau protein, isoform …; test: SPR (Biacore 3000), over immobilized Tau-441, duplicate injection
Method: (§3) Surface Plasmon Resonance (SPR): All binding assays for DH-Tau15 and Fc-Tau15 were carried out at 25° C. on a Biacore™ 3000 instrument (GE Healthcare). […] The running buffer for all SPR experiments was HBS-EP+ (10 mM HEPES, 150 mM NaCl, 3 mM EDTA, pH 7.4, 0.05% surfactant P20; GE Healthcare). The antibodies were injected at 20 μL/min for 2 min with a dissociation time of 30 min. Data was analyzed using the Biacore 3000 BIAevaluations software Version 4.1.

[8] = biological target: T1, recombinant human tau protein, isoform …; test: SPR (Biacore 3000), over immobilized Tau-441
Method: as §3

Kd [1]: 105 nM | Kd [2]: 820 nM | Kd [3]: 745 nM | Kd [4]: 175 nM | Kd [5]: 660 nM | Kd [6]: 507 nM
B1: Tau81 (VHH)
VHH: QVQLVESGGGLVQPGGSLKLSCAASGFTGDHYAMSWVRQAPGKGLEWVSTIYSYSPNTYYVDSVKDRFTISLDNAKNTLYLQMNSLKPEDTAVYYCAADLEVAEYYAYWGQGTQVTVSS
notes: Llama single-domain antibody with VH hallmark residues in FR2; mainly monomeric by SEC; also called 7Tau81; sdAb Tau81; not shown: C-terminal cmyc and His6 tags (pSJF2H vector); OmpA leader removed on secretion

Kd [1]: 605 nM | Kd [2]: 699 nM | Kd [3]: 622 nM | Kd [4]: 820 nM | Kd [5]: 534 nM | Kd [6]: 590 nM | koff [7]: 0.0632 s⁻¹ and 0.0667 s⁻¹
B2: Tau15 (VHH)
VHH: QVKLEESGGGLVQPGGSLRLSCAASGFTFSNFAMTWVRQSPGKGLEWVSAIDNDGGRTSYSDSVKGRFTISRDNAKNTLYLQMNSLKPEDTAMYYCAAMNLATRKWELWGQGTQVTVSS
notes: Llama single-domain antibody with VH (not VHH) hallmark residues in FR2; monomeric by SEC; expressed in E. coli periplasm; also called 3Tau15; sdAb Tau15; not shown: C-terminal cmyc and His6 tags (pSJF2H vector); OmpA leader removed on secretion

fold slower off rate than monomeric Tau15 [8]: ~1000 fold | koff [7]: 4.27e-05 s⁻¹ and 3.45e-05 s⁻¹
B3: dimeric human hinge Tau15 (DH-Tau15) (VHH)
VHH: B2 VHH
notes: dimer through the hinge; also called dimeric hinge Tau15; hinge dimer
